Test results taken from PMC7736791 (Nucleic Acids Research, 2020).
“And” between values parts separate entries of the source, which are not always exact repeats. Equal entries are not always repeated. Where two headings read alike, the source gives them in different places.

B1: AAV2 Rep68 origin binding domain (OBD) (domain or fragment, adeno-associated virus 2 (AAV2))
chain: MPGFYEIVIKVPSDLDGHLPGISDSFVNWVAEKEWELPPDSDMDLNLIEQAPLTVAEKLQRDFLTEWRRVSKAPEALFFVQFEKGESYFHMHVLVETTGVKSMVLGRFLSQIREKLIQRIYRGIEPTLPNWFAVTKTRNGAGGGNKVVDECYIPNYLLPKTQPELQWAWTNMEQYLSACLNLTERKRLVAQHLTHVSQTQEQNKENQNPN

Columns and labels:
[1] = target: AAV2 Rep68* (Rep68 C151S) (adeno-associated virus 2 (AAV2)) (UniProt P03132); experiment: cryo-EM structure
[2] = target: AAV2 Rep68* (Rep68 C151S) (adeno-associated virus 2 (AAV2)) (UniProt P03132); experiment: cryo-EM structure; remark: listed apart in the source
[3] = target: AAV2 Rep68* (Rep68 C151S) (adeno-associated virus 2 (AAV2)) (UniProt P03132); experiment: cryo-EM structure; remark: listed apart in the source
[4] = target: AAV2 Rep68* (Rep68 C151S) (adeno-associated virus 2 (AAV2)) (UniProt P03132); experiment: cryo-EM structure; remark: listed apart in the source
[5] = target: AAV2 Rep68* (Rep68 C151S) (adeno-associated virus 2 (AAV2)) (UniProt P03132); experiment: cryo-EM structure; remark: listed apart in the source
cross-linking = target: the molecule itself; experiment: cross-linking

| Molecule | stoichiometry N [1] | stoichiometry N [2] | stoichiometry N [3] | stoichiometry N [4] | stoichiometry N [5] | stoichiometry N (cross-linking) |
| --- | --- | --- | --- | --- | --- | --- |
| AAV2 Rep68* (Rep68 C151S) (from UniProt P03132 1-536) (enzyme) | 6 and 7 | 7 | 8 | 6 | 7 |  |
| B1 |  |  |  |  |  | 8 |
